Test results from patent US20230035859A1, “COMPOSITIONS AND METHODS FOR EPITOPE SCANNING” (priority 2019, published 2023).

What was measured:
HLA-A*02:01 [1] = target: T1, HLA-A*02:01 (Homo sapiens, UniProt P04439, D140Y/D185E/D98H/E176V/E277Q/G131W/G231S/I119V/I121R/I166T/I218V/L300P/L318F/N151K/N90K/P208A/P217A/Q86G/Q94H/R138H/R169H/T345S); format: cell-based
HLA-A*02:01 [2] = target: T1, HLA-A*02:01; test: QuickSwitch Quant HLA-A*02:01 Tetramer control peptide exchange
[3] = cited from earlier work
HLA-B*57:01 = HLA-B*57:01 (Homo sapiens, UniProt P01889, D201E/D98Y/E176V/E187L/E204Q/E69M/E70A/G107R/I90N/K202T/L105A/L119I/N104I/N87E/Q89R/Q94S/R106L/R155S/R180L/R86G/S101N/S121V/S35A/S48A/T118I/V36M/Y140S/Y91M); test: Random 9-mer EpiScan screen in HLA-B57-expressing EpiScan cells with and without abacavir; format: cell-based; conditions: 48 h abacavir treatment at 6 μM
CD8+ T cells = format: cell-based, human; design: key: y = yes; TBD = to be determined

| Compound | EpiScan MFI (HLA-A*02:01 [1]) | % Peptide Exchange (HLA-A*02:01 [2]) | Patient tetramer positivity? (CD8+ T cells) | other results |
| --- | --- | --- | --- | --- |
| YIDIGNYTV | 4.421 | 97.94% | – | – |
| AMDEFIERYKL | 2.352 | 96.89% | – | – |
| Nc1nc(NC2CC2)c2ncn([C@H]3C=C[C@@H](CO)C3)c2n1 [Abacavir] | – | – | – | hypersensitivity, share of patients [3]: around 5%; binding peptides with C-terminal Residue C, Abacavir treated (HLA-B*57:01): 3; binding peptides with C-terminal Residue F, Abacavir treated (HLA-B*57:01): 66; binding peptides with C-terminal Residue G, Abacavir treated (HLA-B*57:01): 4; binding peptides with C-terminal Residue I, Abacavir treated (HLA-B*57:01): 59; binding peptides with C-terminal Residue L, Abacavir treated (HLA-B*57:01): 10; binding peptides with C-terminal Residue M, Abacavir treated (HLA-B*57:01): 5; binding peptides with C-terminal Residue N, Abacavir treated (HLA-B*57:01): 1; binding peptides with C-terminal Residue R, Abacavir treated (HLA-B*57:01): 3; binding peptides with C-terminal Residue V, Abacavir treated (HLA-B*57:01): 28; binding peptides with C-terminal Residue W, Abacavir treated (HLA-B*57:01): 502; binding peptides with C-terminal Residue Y, Abacavir treated (HLA-B*57:01): 22 |
| SLPGVFCGV [SARS-CoV-2 HLA-A*02:01 peptide used for tetramer staining] | 6.418 | 98.00% | y | – |
| VMAYITGGVV [SARS-CoV-2 HLA-A*02:01 peptide used for tetramer staining] | 4.641 | 99.07% | y | – |
| VLYQDVNCTEV | 5.598 | 97.92% | – | – |
| VMAYITGGV | 4.528 | 99.07% | – | – |
| TLATHGLAAV | 4.040 | 97.98% | – | – |
| VMVELVAEL [SARS-CoV-2 HLA-A*02:01 peptide used for tetramer staining] | 5.338 | 98.63% | y | – |
